Measured values as given in publication PMC2997670 (The Biochemical journal, 2010).

B1: ECM4 (extracellular mutant 4) of Saccharomyces cerevisiae (enzyme, S. cerevisiae, UniProt P36156 1-370, looked up)
chain: MSKQWASGTNGAFKRQVSSFRETISKQHPIYKPAKGRYWLYVSLACPWAHRTLITRALKGLTSVIGCSVVHWHLDEKGWRFLDMEKQLEDSEDFLEHWHDVAGGIRTAKEDSSKSFAEIKNDSQRFMVDATNEPHYGYKRISDLYYKSDPQYSARFTVPVLWDLETQTIVNNESSEIIRILNSSAFDEFVDDDHKKTDLVPAQLKTQIDDFNSWVYDSINNGVYKTGFAEKAEVYESEVNNVFEHLDKVEKILSDKYSKLKAKYGEEDRQKILGEFFTVGDQLTEADIRLYTTVIRFDPVYVQHFKCNFTSIRAGYPFIHLWVRNLYWNYDAFRYTTDFDHIKLHYTRSHTRINPLGITPLGPKPDIRPL
B2: PcpF, S-glutathionyl-(chloro)hydroquinone reductase of Sphingobium chlorophenolicum ATCC 39723 (enzyme, UniProt Q8KN33 1-313, looked up)
chain: MGLLIDGVWRDAWYDTKSSGGRFVRKESQYRGGLDAGFRGEPGRYHLYAGFACPWAHRVLIMRALKGLEEMISVSMVNAYMGENGWTFLPGDDVVPDSINGADYLYQVYTAADPTYTGRVTIPILWDKVEKRILNNESSEIIRILNSAFDDVGALPGDYYPAEFRPEIDRINARVYETLNNGVYRSGFATTQEAYEEAFYPLFDTLDWLEEHLTGREWLVGDRLTEADIRLFPTLVRFDAIYHGHFKCNLRRIADYPNLSRLVGKLASHERVAPTINLRHAKAHYYGSHPSVNPTGIVPVGPAQPLPGLTLQS

Biological target: the molecule itself
Assay: SEC + SEC-MALS

Protein | stoichiometry N
B1 | 2
B2 | 2
